# Source: publication PMC6587167
# Experiments:
# [1] = cycloheximide chase, western blot, endogenous Sox2; conditions: glycan lost; control: untreated / scrambled control S2VP10
# [2] = western blot, S2VP10 and L3.6PL; conditions: glycan lost; control: untreated cells
# [3] = dual luciferase Sox2 reporter; conditions: glycan lost; control: untreated / control siRNA / scrambled control
# western blot, MIA-PACA2 = conditions: glycan lost; control: wild-type Sox2 overexpression
Substance,degradation_or_half_life [1],expression_or_secretion [2],other: transcriptional activity [3],"expression_or_secretion (western blot, MIA-PACA2)"
SOX2: OSMI,decreases,decreases,decreases,–
SOX2: S246A,–,–,–,decreases
SOX2: siOGT,–,–,decreases,–
